The record followed here is US20030166037.

Series [1] concerns T1, FasL1 FRET peptide (Aedans)EKELAELRESTS(Dabcyl)K-amide.
T1 sequence: KELAELRESTS

Series [2] addresses T2, FasL1 FRET peptide (Aedans)…(Dabcyl)K-amide.
T2 chain: KELAELRESTS

In series [3] the target is T3, Peptide D7 (Aedans)ERNITEGEARGSVIL(Dabcyl)K-amide (not fully specified).
T3 chain: ERNITEGEARGSVIL

Series [4] addresses T4, 29CD23 FRET peptide (Aedans)…(Dabcyl)K-amide.
T4 chain: ADLSSFKSQEL

Series [5] concerns the target T4, 29CD23 FRET peptide …. Briefly: FRET peptide cleavage kinetics, non-linear fit of rate against substrate concentration (the filing calls it analysis of affinities).
The target in series [6] is T2, FasL1 FRET peptide …. The description is as above.

Take MMP7 (Chemicon, Cat. #CC1059): the “FRET peptide cleavage in similar screening assays” value in series [1] was “shown in similar screening assays to be a suitable substrate for the metalloproteases MMP7 and MMP 13”.

Take MMP 13 (Chemicon, Cat. #CC068): the “FRET peptide cleavage in similar screening assays” value in series [1] is “shown in similar screening assays to be a suitable substrate for the metalloproteases MMP7 and MMP 13”.

B1: truncated recombinant human Aggrecanase-1 (pro- and protease domains with C-terminal FLAG epitope) (protein)
chain: FASLSRFVETLVVADDKMAAFHGAGLKRYLLTVMAAAAKAFKHPSIRNPVSLVVTRLVILGSGEEGPQVGPSAAQTLRSFCAWQRGLNTPEDSDPDHFDTAILFTRQDLCGVSTCDTLGMADVGTVCDPARSCAIVEDDGLQSAFTAAHELGHVFNMLHDNSKPCISLNGPLSTSRHVMAPVMAHVDPEEPWSPCSARFITDFLDNGYGHCLLDKPEAPLHLPVTGDYKDDDDKG
In the case of B1, the “Relative proteolytic Activity” value in series [2] was “*”. In addition, in series [3], the “FRET peptide cleavage activity” value is recorded as “Neither Aggrecanase-1 nor Aggrecanase-2 showed any activity on this peptide”.

B2: truncated recombinant human Aggrecanase-2 (pro- and protease domains with C-terminal FLAG epitope) (protein)
chain: SISRARQVELLLVADASMARLYGRGLQHYLLTLASIANRLYSHASIENHIRLAVVKVVVLGDKDKSLEVSKNAATTLKNFCKWQHQHNQLGDDHEEHYDAAILFTREDLCGHHSCDTLGMADVGTICSPERSCAVIEDDGLHAAFTVAHEIGHLLGLSHDDSKFCEETFGSTEDKRLMSSILTSIDASKPWSKCTSATITEFLDDGHGNCLLDLPRKQILGGDYKDDDDKG
One may read the Km as the concentration of substrate that gives half-maximal velocity. As for B2, the “Relative proteolytic Activity” value in series [4] and in series [2] was “*****” in each case. Moreover, the figures for the Vm in series [4] and in series [2] were 0.6 rfu/min and 2.8 rfu/min, respectively. Besides, the “FRET peptide cleavage activity” value in series [3] was “Neither Aggrecanase-1 nor Aggrecanase-2 showed any activity on this peptide”. Besides, the Michaelis-Menten constant (Km) in series [5] is 40 µM; in series [6], 80 µM.
